Test results from patent publication US20240400715A1.
Changes are numbered by the printed parent chain.

Assays:
[1] = biological target: EGFR-CD3 bispecific antibody 401; experiment: BLI self-interaction: antibody captured on AHQ anti-human Fc sensor, free sites blocked with human IgG, same antibody in solution
[2] = biological target: HER2-CD3 bispecific antibody 504; experiment: as above

B1: EGFR-CD3 bispecific antibody 401 (bispecific antibody, human IgG4 S228P, kappa, F234A L235A)
heavy: EVKLLESGGGLVQPKGSLKLSCAASGFTFNTYAMNWVRQAPGKGLEWVARIRSKYNNYATYYADSVKDRFTISRDDSQSILYLQMNNLKTEDTAMYYCVRHGNFGNSYVSWFAYWGQGTLVTVSSASTKGPSVFPLAPCSRSTSESTAALGCLVKDYFPEPVTVSWNSGALTSGVHTFPAVLQSSGLYSLSSVVTVPSSSLGTKTYTCNVDHKPSNTKVDKRVESKYGPPCPPCPAPEAAGGPSVFLFPPKPKDTLMISRTPEVTCVVVDVSQEDPEVQFNWYVDGVEVHNAKTKPREEQFNSTYRVVSVLTVLHQDWLNGKEYKCKVSNKGLPSSIEKTISKAKGQPREPQVYTLPPCQEEMTKNQVSLWCLVKGFYPSDIAVEWESNGQPENNYKTTPPVLDSDGSFFLYSRLTVDKSRWQEGNVFSCSVMHEALHNHYTQKSLSLSL
chain: QVQLQESGGGSVQAGGSLKLSCAASGRGFSRYAMGWFRQAPGQDREFVATISWTNSTDYADSVKGRFAISRDNAKNTAYLQMNSLKPEDTAVYYCAADKWASSTRSIDYDYWGQGIQVTVSSESKYGPPCPPCPAPEAAGGPSVFLFPPKPKDTLMISRTPEVTCVVVDVSQEDPEVQFNWYVDGVEVHNAKTKPREEQFNSTYRVVSVLTVLHQDWLNGKEYKCKVSNKGLPSSIEKTISKAKGQPREPQVCTLPPSQEEMTKNQVSLSCAVKGFYPSDIAVEWESNGQPENNYKTTPPVLDSDGSFFLVSRLTVDKSRWQEGNVFSCSVMHEALHNRFTQKSLSLSL
light: QAVVTQESALTTSPGETVTLTCRSSTGAVTTSNYANWVQEKPDHLFTGLIGGTNKRAPGVPARFSGSLIGDKAALTITGAQTEDEAIYFCALWYSNLWVFGGGTKVEIKRTVAAPSVFIFPPSDEQLKSGTASVVCLLNNFYPREAKVQWKVDNALQSGNSQESVTEQDSKDSTYSLSSTLTLSKADYEKHKVYACEVTHQGLSSPVTKSFNRGEC
B1 gave a BLI-Response (self-interaction signal) [1] of 0.043 nm.

B2: HER2-CD3 bispecific antibody 504 (bispecific antibody, human IgG4 S228P, kappa, F234A L235A)
chain: QVQLVQSGGGLVQAGGSLRLSCAASGRTFSSYAMAWFRQAPGKEREFVAAISWSGANIYVADSVKGRFTISRDNAKDTVYLQMNSLKPEDTAVYYCAVKLGFAPVEERQYDYWGQGTQVTVSSESKYGPPCPPCPAPEAAGGPSVFLFPPKPKDTLMISRTPEVTCVVVDVSQEDPEVQFNWYVDGVEVHNAKTKPREEQFNSTYRVVSVLTVLHQDWLNGKEYKCKVSNKGLPSSIEKTISKAKGQPREPQVYTLPPCQEEMTKNQVSLWCLVKGFYPSDIAVEWESNGQPENNYKTTPPVLDSDGSFFLYSRLTVDKSRWQEGNVFSCSVMHEALHNHYTQKSLSLSL
heavy: B1 heavy with Y354C, C359S, W371S, L373A, Y412V, H440R, Y441F
light: B1 light
Work on B2 yielded a BLI-Response (self-interaction signal) [2] of 0.07 nm.
